For orientation: Km means the concentration of substrate that gives half-maximal velocity. In general, Vmax refers to the top rate of the reaction or transport when substrate is in excess.

Common to all, as to assay type: biochemical, Methanosarcina acetivorans
Substrate in data set [1]: C[C@@H](OP(=O)(O)O)[C@H](NC(=O)CCCCCCS)C(=O)O
Nature of the data set: reverse heterodisulfide reductase assay. Particulars: co-substrate HSCoM, 21 °C.

Substrate in data set [2]: O=S(=O)(O)CCS
Nature of the data set: reverse heterodisulfide reductase assay. Conditions: co-substrate HSCoB, 21 °C.

Substrate in data set [3]: C[C@@H](OP(=O)(O)O)[C@H](NC(=O)CCCCCCSSCCS(=O)(=O)O)C(=O)O
Nature of the data set: forward heterodisulfide reductase assay with reduced methyl viologen. Conditions: reduced methyl viologen as electron donor, 21 °C, HdrA2 + HdrB2C2, no ferredoxin.

B1: HdrB2C2 (Methanosarcina acetivorans C2A) (protein)
chain: MAKLSLFRGCIVPNRYPGIEKATKLCLQKLEVDAVDLPGASCCPAPGVFKSFDKATWLALASRNIVLSERMGRDILTVCNGCYGSLADANIELKNDPEMKACTNSCLKEIGMEYKGTAEVRHIIEFLYKELGPEKLKSFITTPLDLKVALHYGCHLIKPSKERNLGETEAPVFFDELVEATGAKSVDYTDKMMCCGAGGGVRSGHAAESLEMLEHKLACIRNAGVDCIVNACPFCHLQFDRGQLAVNEKFGTDYSIPVLHYSQLLGLALGFSPDELGIEQNAIQNIEFLAKIYEISAGLR
notes: with Heterodisulfide reductase subunit C2 (CoB--CoM heterodisulfide reductase iron-sulfur subunit C 2)
As to B1, the Km in data set [1] (no HdrA2) came to 1200 ± 200 µM. Besides, in data set [2] (no HdrA2), the Michaelis constant (Km) turned out to be 1400 ± 200 µM and the Vmax turned out to be 0.6 µmol/min/mg.

B2: HdrB2 (Methanosarcina acetivorans C2A) (protein)
chain: MAKLSLFRGCIVPNRYPGIEKATKLCLQKLEVDAVDLPGASCCPAPGVFKSFDKATWLALASRNIVLSERMGRDILTVCNGCYGSLADANIELKNDPEMKACTNSCLKEIGMEYKGTAEVRHIIEFLYKELGPEKLKSFITTPLDLKVALHYGCHLIKPSKERNLGETEAPVFFDELVEATGAKSVDYTDKMMCCGAGGGVRSGHAAESLEMLEHKLACIRNAGVDCIVNACPFCHLQFDRGQLAVNEKFGTDYSIPVLHYSQLLGLALGFSPDELGIEQNAIQNIEFLAKIYEISAGLR
On to B2, for which, in data set [1] (HdrB2 alone), the Michaelis constant (Km) was found to be 1100 ± 200 µM. Besides, in data set [2] (HdrB2 alone), the Km came to 1200 ± 300 µM and the Vmax came to 0.5 µmol/min/mg.

B3: HdrA2B2C2 (Methanosarcina acetivorans C2A) (protein)
chain: MAKLSLFRGCIVPNRYPGIEKATKLCLQKLEVDAVDLPGASCCPAPGVFKSFDKATWLALASRNIVLSERMGRDILTVCNGCYGSLADANIELKNDPEMKACTNSCLKEIGMEYKGTAEVRHIIEFLYKELGPEKLKSFITTPLDLKVALHYGCHLIKPSKERNLGETEAPVFFDELVEATGAKSVDYTDKMMCCGAGGGVRSGHAAESLEMLEHKLACIRNAGVDCIVNACPFCHLQFDRGQLAVNEKFGTDYSIPVLHYSQLLGLALGFSPDELGIEQNAIQNIEFLAKIYEISAGLR
notes: complex reconstituted by mixing recombinant HdrA2 (C-terminal His6) with copurified HdrB2C2 (His6 on HdrB2); with Heterodisulfide reductase subunit C2 (CoB--CoM heterodisulfide reductase iron-sulfur subunit C 2); H(2)/F420-type heterodisulfide reductase subunit A2 (CoB--CoM heterodisulfide reductase iron-sulfur subunit A 2; HdrA-MvhD fusion)
B3: in data set [3], the Km was 50 ± 10 µM and the maximum rate (Vmax) was 2.2 µmol/min/mg.

(Values after article PMC5296606, “A Ferredoxin- and F420H2-Dependent, Electron-Bifurcating, Heterodisulfide Reductase with Homologs in the Domains Bacteria and Archaea” (mBio, 2017).)
